Positions count from the first letter of the chain named.
T1: LIN7A, O14910
T1 sequence (O14910 103-200, limits assumed, looked up): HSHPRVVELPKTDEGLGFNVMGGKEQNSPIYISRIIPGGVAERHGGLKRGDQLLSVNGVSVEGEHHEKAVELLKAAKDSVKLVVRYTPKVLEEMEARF

T2: TIAM2, Q8IVF5
T2 sequence (Q8IVF5 885-986, limits assumed, looked up): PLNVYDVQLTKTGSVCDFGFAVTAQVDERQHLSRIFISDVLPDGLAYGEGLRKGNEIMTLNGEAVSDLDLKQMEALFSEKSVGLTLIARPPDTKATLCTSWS

T3: DFNB31_1, Q9P202
T3 sequence (Q9P202 135-233, limits assumed, looked up): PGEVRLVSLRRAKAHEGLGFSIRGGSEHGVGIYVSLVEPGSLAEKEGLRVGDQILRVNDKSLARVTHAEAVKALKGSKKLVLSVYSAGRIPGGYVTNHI

T4: FRMPD1, Q5SYB0
T4 sequence (Q5SYB0 52-145, limits assumed, looked up): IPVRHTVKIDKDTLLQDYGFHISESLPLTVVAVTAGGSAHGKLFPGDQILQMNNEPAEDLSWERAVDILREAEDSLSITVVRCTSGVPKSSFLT

T5: RAPGEF6, Q8TEU7
T5 sequence (Q8TEU7 525-625, limits assumed, looked up): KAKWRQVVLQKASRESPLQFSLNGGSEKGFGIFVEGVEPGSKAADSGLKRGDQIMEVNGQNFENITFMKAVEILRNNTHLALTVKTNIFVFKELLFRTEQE

T6: MPDZ_10, O75970
T6 sequence (O75970 1624-1722, limits assumed, looked up): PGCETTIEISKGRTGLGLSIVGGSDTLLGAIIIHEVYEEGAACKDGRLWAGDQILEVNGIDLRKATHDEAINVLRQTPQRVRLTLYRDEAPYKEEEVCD

T7: LNX2_2, Q8N448
T7 sequence (Q8N448 334-432, limits assumed, looked up): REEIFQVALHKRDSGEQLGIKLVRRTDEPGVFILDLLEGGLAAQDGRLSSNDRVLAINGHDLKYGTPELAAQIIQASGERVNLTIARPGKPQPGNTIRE

T8: SYNJ2BP, P57105
T8 sequence (P57105 8-110, limits assumed, looked up): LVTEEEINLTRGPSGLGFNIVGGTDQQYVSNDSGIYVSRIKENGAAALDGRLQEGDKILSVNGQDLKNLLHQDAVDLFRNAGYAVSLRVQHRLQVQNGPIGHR

T9: PDZRN3_1, Q9UPQ7
T9 sequence (Q9UPQ7 244-349, limits assumed, looked up): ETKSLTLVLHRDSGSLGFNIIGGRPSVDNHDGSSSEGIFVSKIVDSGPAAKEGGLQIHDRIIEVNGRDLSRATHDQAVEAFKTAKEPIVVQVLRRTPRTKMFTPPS

T10: SIPA1L2, Q9P2F8
T10 sequence (Q9P2F8 945-1036, limits assumed, looked up): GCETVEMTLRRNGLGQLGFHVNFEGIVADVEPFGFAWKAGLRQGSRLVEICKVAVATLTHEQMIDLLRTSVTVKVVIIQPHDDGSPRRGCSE

T11: LIN7B, Q9HAP6
T11 sequence (Q9HAP6 88-185, limits assumed, looked up): T1 sequence (O14910 103-200, limits assumed, looked up) with S2A, V20I, I35V, E42D, H65Q, K77Q, D78G, K89R

T12: NHERF3_4, Q5T2W1
T12 sequence (Q5T2W1 373-468, limits assumed, looked up): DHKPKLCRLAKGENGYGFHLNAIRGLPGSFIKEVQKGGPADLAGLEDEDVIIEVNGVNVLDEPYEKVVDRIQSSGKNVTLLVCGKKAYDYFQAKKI

T13: PDZD7_3, Q9H5P4
T13 sequence (Q9H5P4 857-944, limits assumed, looked up): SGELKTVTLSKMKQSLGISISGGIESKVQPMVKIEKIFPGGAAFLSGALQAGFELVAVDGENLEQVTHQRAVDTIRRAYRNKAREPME

B1: ITK, Q08881 (peptide)
chain: QLAEIAESGL
B2: RRBP1, Q9P2E9 (peptide)
chain: GSSSKEGTSV
B3: GAGE12J, A6NER3 (peptide)
chain: PEEGKKQSQC

These binders were tested against T1, LIN7A, O14910 (assay: holdup assay). Settings: plain residues with an end cap or a label only (N-terminal biotin on a linker: ado-ado).
Design: key: below the threshold = too weak to quantify, mostly under pKd 3.1 to 4

Binder	pKd
B1	3.65
B2	below the threshold
B3	below the threshold

What follows are binders tested against LNX1_2, Q8TBB1 (assay: holdup assay). Settings: plain residues with an end cap or a label only (N-terminal biotin on a linker: ado-ado).
Chain of LNX1_2, Q8TBB1 (Q8TBB1 371-470): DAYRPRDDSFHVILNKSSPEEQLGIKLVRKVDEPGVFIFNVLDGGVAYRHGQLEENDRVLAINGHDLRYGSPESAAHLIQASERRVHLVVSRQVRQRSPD
Design: key: below the threshold = too weak to quantify, mostly under pKd 3.1 to 4

Binder	pKd
B1	below the threshold
B2	3.49
B3	below the threshold

What follows are binders tested against DLG1_2, Q12959 (assay: holdup assay). Settings: plain residues with an end cap or a label only (N-terminal biotin on a linker: ado-ado).
Chain of DLG1_2, Q12959 (Q12959 314-412): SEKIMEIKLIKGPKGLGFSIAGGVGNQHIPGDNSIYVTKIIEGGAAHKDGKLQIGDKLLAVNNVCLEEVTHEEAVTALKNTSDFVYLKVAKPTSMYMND
Design: key: below the threshold = too weak to quantify, mostly under pKd 3.1 to 4

Binder	pKd
B1	below the threshold
B2	4.45
B3	below the threshold

Each binder was assayed against FRMPD3, Q5JV73 (assay: holdup assay). Settings: plain residues with an end cap or a label only (N-terminal biotin on a linker: ado-ado).
Chain of FRMPD3, Q5JV73 (Q5JV73 12-100): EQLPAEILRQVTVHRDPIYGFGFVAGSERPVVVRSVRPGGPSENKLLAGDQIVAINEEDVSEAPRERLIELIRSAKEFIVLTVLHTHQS
Design: key: below the threshold = too weak to quantify, mostly under pKd 3.1 to 4

Binder	pKd
B1	below the threshold
B2	below the threshold
B3	below the threshold

What follows are binders tested against T2, TIAM2, Q8IVF5 (assay: holdup assay). Settings: plain residues with an end cap or a label only (N-terminal biotin on a linker: ado-ado).
Design: key: below the threshold = too weak to quantify, mostly under pKd 3.1 to 4

Binder	pKd
B1	below the threshold
B2	below the threshold
B3	3.87

Each binder was assayed against T3, DFNB31_1, Q9P202 (assay: holdup assay). Settings: plain residues with an end cap or a label only (N-terminal biotin on a linker: ado-ado).
Design: key: below the threshold = too weak to quantify, mostly under pKd 3.1 to 4

Binder	pKd
B1	3.97
B2	3.8
B3	below the threshold

The binders below were run against DLG4_2, P78352 (assay: holdup assay). Settings: plain residues with an end cap or a label only (N-terminal biotin on a linker: ado-ado).
Chain of DLG4_2, P78352 (P78352 155-259): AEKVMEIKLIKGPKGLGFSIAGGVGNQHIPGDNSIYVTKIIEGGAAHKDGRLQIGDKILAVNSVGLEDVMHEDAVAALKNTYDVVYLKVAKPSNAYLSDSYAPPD
Design: key: below the threshold = too weak to quantify, mostly under pKd 3.1 to 4

Binder	pKd
B1	3.79
B2	4.27
B3	3.59

The binders below were run against MAST2, Q6P0Q8 (assay: holdup assay). Settings: plain residues with an end cap or a label only (N-terminal biotin on a linker: ado-ado).
Chain of MAST2, Q6P0Q8 (Q6P0Q8 1099-1202): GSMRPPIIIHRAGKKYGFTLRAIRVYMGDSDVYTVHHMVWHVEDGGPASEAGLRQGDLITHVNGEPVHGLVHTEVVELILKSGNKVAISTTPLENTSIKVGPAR
Design: key: below the threshold = too weak to quantify, mostly under pKd 3.1 to 4

Binder	pKd
B1	5.28
B2	4.75
B3	4.33

What follows are binders tested against T4, FRMPD1, Q5SYB0 (assay: holdup assay). Settings: plain residues with an end cap or a label only (N-terminal biotin on a linker: ado-ado).
Design: key: below the threshold = too weak to quantify, mostly under pKd 3.1 to 4

Binder	pKd
B1	below the threshold
B2	below the threshold
B3	below the threshold

What follows are binders tested against T5, RAPGEF6, Q8TEU7 (assay: holdup assay). Settings: plain residues with an end cap or a label only (N-terminal biotin on a linker: ado-ado).
Design: key: below the threshold = too weak to quantify, mostly under pKd 3.1 to 4

Binder	pKd
B1	below the threshold
B2	below the threshold
B3	below the threshold

These binders were tested against FRMPD2_2, Q68DX3 (assay: holdup assay). Settings: plain residues with an end cap or a label only (N-terminal biotin on a linker: ado-ado).
Chain of FRMPD2_2, Q68DX3 (Q68DX3 944-1038): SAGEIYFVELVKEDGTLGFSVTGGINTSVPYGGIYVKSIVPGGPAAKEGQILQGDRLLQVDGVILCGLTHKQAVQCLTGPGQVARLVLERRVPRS
Design: key: below the threshold = too weak to quantify, mostly under pKd 3.1 to 4

Binder	pKd
B1	3.52
B2	below the threshold
B3	below the threshold

Each binder was assayed against PTPN3, P26045 (assay: holdup assay). Settings: plain residues with an end cap or a label only (N-terminal biotin on a linker: ado-ado).
Chain of PTPN3, P26045 (P26045 505-587): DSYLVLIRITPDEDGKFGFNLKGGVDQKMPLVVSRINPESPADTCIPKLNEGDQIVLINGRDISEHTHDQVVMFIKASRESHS
Design: key: below the threshold = too weak to quantify, mostly under pKd 3.1 to 4

Binder	pKd
B1	4.89
B2	5.01
B3	3.91

What follows are binders tested against T6, MPDZ_10, O75970 (assay: holdup assay). Settings: plain residues with an end cap or a label only (N-terminal biotin on a linker: ado-ado).
Design: key: below the threshold = too weak to quantify, mostly under pKd 3.1 to 4

Binder	pKd
B1	below the threshold
B2	3.62
B3	below the threshold

Each binder was assayed against SCRIB_2, Q14160 (assay: holdup assay). Settings: plain residues with an end cap or a label only (N-terminal biotin on a linker: ado-ado).
Chain of SCRIB_2, Q14160 (Q14160 857-960): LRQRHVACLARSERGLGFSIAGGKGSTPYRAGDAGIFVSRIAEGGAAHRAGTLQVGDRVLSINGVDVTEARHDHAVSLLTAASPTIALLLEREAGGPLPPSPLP
Design: key: below the threshold = too weak to quantify, mostly under pKd 3.1 to 4

Binder	pKd
B1	3.6
B2	4.11
B3	below the threshold

These binders were tested against T7, LNX2_2, Q8N448 (assay: holdup assay). Settings: plain residues with an end cap or a label only (N-terminal biotin on a linker: ado-ado).
Design: key: below the threshold = too weak to quantify, mostly under pKd 3.1 to 4

Binder	pKd
B1	below the threshold
B2	4.15
B3	below the threshold

Each binder was assayed against T8, SYNJ2BP, P57105 (assay: holdup assay). Settings: plain residues with an end cap or a label only (N-terminal biotin on a linker: ado-ado).
Design: key: below the threshold = too weak to quantify, mostly under pKd 3.1 to 4

Binder	pKd
B1	3.84
B2	5.41
B3	3.54

These binders were tested against T9, PDZRN3_1, Q9UPQ7 (assay: holdup assay). Settings: plain residues with an end cap or a label only (N-terminal biotin on a linker: ado-ado).
Design: key: below the threshold = too weak to quantify, mostly under pKd 3.1 to 4

Binder	pKd
B1	3.89
B2	4.33
B3	below the threshold

These binders were tested against HTRA1, Q92743 (assay: holdup assay). Settings: plain residues with an end cap or a label only (N-terminal biotin on a linker: ado-ado).
Chain of HTRA1, Q92743 (Q92743 360-477): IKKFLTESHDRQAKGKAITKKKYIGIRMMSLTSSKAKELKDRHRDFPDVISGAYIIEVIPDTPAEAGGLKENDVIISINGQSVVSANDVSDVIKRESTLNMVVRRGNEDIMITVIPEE
Design: key: below the threshold = too weak to quantify, mostly under pKd 3.1 to 4

Binder	pKd
B1	below the threshold
B2	3.84
B3	below the threshold

These binders were tested against SNX27, Q96L92 (assay: holdup assay). Settings: plain residues with an end cap or a label only (N-terminal biotin on a linker: ado-ado).
Design: key: below the threshold = too weak to quantify, mostly under pKd 3.1 to 4

Binder	pKd
B1	5.4
B2	4.1
B3	below the threshold

Each binder was assayed against T10, SIPA1L2, Q9P2F8 (assay: holdup assay). Settings: plain residues with an end cap or a label only (N-terminal biotin on a linker: ado-ado).
Design: key: below the threshold = too weak to quantify, mostly under pKd 3.1 to 4

Binder	pKd
B1	3.67
B2	below the threshold
B3	below the threshold

These binders were tested against T11, LIN7B, Q9HAP6 (assay: holdup assay). Settings: plain residues with an end cap or a label only (N-terminal biotin on a linker: ado-ado).
Design: key: below the threshold = too weak to quantify, mostly under pKd 3.1 to 4

Binder	pKd
B1	below the threshold
B2	below the threshold
B3	3.74

The binders below were run against Inadl_3, Q8NI35 (assay: holdup assay). Settings: plain residues with an end cap or a label only (N-terminal biotin on a linker: ado-ado).
Chain of Inadl_3, Q8NI35 (Q8NI35 359-469): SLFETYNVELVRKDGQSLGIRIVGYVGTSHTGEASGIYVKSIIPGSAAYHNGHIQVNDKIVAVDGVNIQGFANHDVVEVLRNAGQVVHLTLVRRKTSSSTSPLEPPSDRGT
Design: key: below the threshold = too weak to quantify, mostly under pKd 3.1 to 4

Binder	pKd
B1	below the threshold
B2	below the threshold
B3	below the threshold

What follows are binders tested against T12, NHERF3_4, Q5T2W1 (assay: holdup assay). Settings: plain residues with an end cap or a label only (N-terminal biotin on a linker: ado-ado).
Design: key: below the threshold = too weak to quantify, mostly under pKd 3.1 to 4

Binder	pKd
B1	3.54
B2	below the threshold
B3	below the threshold

These binders were tested against T13, PDZD7_3, Q9H5P4 (assay: holdup assay). Settings: plain residues with an end cap or a label only (N-terminal biotin on a linker: ado-ado).
Design: key: below the threshold = too weak to quantify, mostly under pKd 3.1 to 4

Binder	pKd
B1	below the threshold
B2	4.28
B3	below the threshold

— article PMC9482650, “Quantitative fragmentomics allow affinity mapping of interactomes” (Nature Communications, 2022)
